Measurements published in patent publication US20190083587A1 (Novo Nordisk, published 2019).
Residue numbers refer to the chain shown, from its start.

Key:
hTLT-1 ECD-His = target: T1, hTLT-1 ECD-His (human, UniProt Q86YW5 16-162); test: SPR Biacore, mAb immobilised directly, TLT-1 as analyte
T1 construct: Extracellular domain of human TLT-1 with C-terminal His-6 tag; the range 16-168 is computed from these; also called TLT-1-His; His tagged human TLT1
T1 sequence: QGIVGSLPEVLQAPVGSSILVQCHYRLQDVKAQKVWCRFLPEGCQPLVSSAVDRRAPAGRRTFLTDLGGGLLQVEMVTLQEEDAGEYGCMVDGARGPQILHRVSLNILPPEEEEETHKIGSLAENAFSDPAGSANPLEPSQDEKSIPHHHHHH
Method: Method: The mAbs of interest were either immobilized directly to a CM5 chip or by capture via a human Fc capture mAb immobilized to a CM5 chip, while TLT-1-His was immobilized by capture via an anti-His mAb CM5 chip for analysis of Fabs.
mAb direct capture: The TLT-1 mAbs were immobilised to a level of approx 500-1000 RU on a CM5 chip (50 μg/ml diluted in Na-acetate, pH 4.0) using the standard procedure recommended by the supplier. Two-fold dilutions of TLT-1 from 200 nM to 0.2 nM were tested for binding to the mAbs. Running and dilution buffer: 10 mM HEPES, 150 mM, 0.005% p20, pH 7.4. Regeneration was obtained by 10 mM Glycine, pH 1.7. mAb capture via human Fc mAb: Human Fc mAb was immobilised to approx 10.000 RU. The mAb of interest was added (approx 100 nM). Two-fold dilutions of TLT-1 from 200 nM to 0.2 nM were tested. Running and dilution buffer: 10 mM HEPES, 150 mM, 0.005% p20, pH 7.4. Regeneration was obtained in 3 M MgCl₂.

hTLT-1 ECD-HPC4 F54A = target: T2, hTLT-1 ECD-HPC4 F54A (human, UniProt Q86YW5 16-162); test: SPR ProteOn, mAb captured by anti-hFc, 100 nM mutant, signal 10 s after injection
T2 construct: Built as m17; also called Ala mutant 12
T2 chain: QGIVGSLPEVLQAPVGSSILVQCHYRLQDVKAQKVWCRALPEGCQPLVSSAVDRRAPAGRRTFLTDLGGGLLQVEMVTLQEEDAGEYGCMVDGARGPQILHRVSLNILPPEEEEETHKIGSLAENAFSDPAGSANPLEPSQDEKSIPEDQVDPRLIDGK
Method: (§1) Each antibody was diluted in 10 mM sodium acetate pH 5.0 to a concentration of 50 μg/ml, and was immobilized to an individual flow cell at 30 μl/min for 240 s. The antibodies were immobilized to flow cells A1-A6 (horizontal direction). After immobilization, the active sites on the flow cell were blocked with 1 M ethanolamine. The final immobilization level of capture antibody typically ranged from approximately 9,000 to 10,000 RU in one experiment. Capture of the anti-TLT-1 antibodies mAb0023, mAb0051, mAb0061 and mAb0062 was conducted by diluting to 0.5 μg/ml into HBS-EP buffer (10 mM HEPES, 150 mM NaCl, 3 mM EDTA, 0.05% surfactant P20, pH 7.4) and injected at 30 μl/min for 60 s in vertical direction, creating interspot reference points with only anti-human Fc antibodies.
(§2) The final capture level of test antibodies typically ranged from approximately 200 to 300 RU in one experiment. Binding of wt or Ala mutant hTLT-1 ECD-HPC4 protein was conducted by injecting over parallel flow cells in horizontal direction to allow for comparative analyses of binding to different captured anti-TLT-1 antibodies relative to binding to the interspot references. Each hTLT-1 ECD-HPC4 protein was diluted to 100 nM, based on the calculated average Mw, into HBS-EP buffer and injected at 30 μl/min for 240 s. The GLM chip was regenerated after each injection cycle of analyte via one 18 s injection of 1 M Formic acid followed by a 18s injection of 50 mM NaOH at 100 μl/min. This regeneration step removed the anti-TLT-1 antibody and any bound TLT-1 from the immobilized capture antibody surface, and allowed for the subsequent binding of the next test sample pair.
(§3) Data analysis was performed using the ProteOn Manager™ Software. No significant non-specific binding to the interspot control surfaces was observed. Binding curves were processed by double referencing (subtraction of interspot control surface signals as well as blank buffer injections over captured anti-TLT-1 antibodies). This allowed correction for instrument noise, bulk shift and drift during sample injections. Binding signal at 10 s after stop of analyte injection was normalized to level of captured anti-TLT-1 antibody and presented as binding relative to wt hTLT-1 ECD-HPC4 protein.

hTLT-1 ECD-HPC4 R117A = target: T3, hTLT-1 ECD-HPC4 R117A (human, UniProt Q86YW5 16-162); test: as above
T3 construct: Built as m17; also called Ala mutant 32
T3 chain: T2 chain with A39F, R102A
Method: as §1, §2, §3

hTLT-1 ECD-HPC4 S119A = target: T4, hTLT-1 ECD-HPC4 S119A (human, UniProt Q86YW5 16-162); test: as above
T4 construct: Built as m17; also called Ala mutant 33
T4 chain: T2 chain with A39F, S104A
Method: as §1, §2, §3

hTLT-1 ECD-HPC4 M91A = target: T5, hTLT-1 ECD-HPC4 M91A (human, UniProt Q86YW5 16-162); test: as above
T5 construct: Built as m17; also called Ala mutant 24
T5 chain: T2 chain with A39F, M76A
Method: as §1, §2, §3

[1] = target: T6, human TLT-1 on activated platelets (human, UniProt Q86YW5 16-311); test: cell-based or functional assay
T6 sequence: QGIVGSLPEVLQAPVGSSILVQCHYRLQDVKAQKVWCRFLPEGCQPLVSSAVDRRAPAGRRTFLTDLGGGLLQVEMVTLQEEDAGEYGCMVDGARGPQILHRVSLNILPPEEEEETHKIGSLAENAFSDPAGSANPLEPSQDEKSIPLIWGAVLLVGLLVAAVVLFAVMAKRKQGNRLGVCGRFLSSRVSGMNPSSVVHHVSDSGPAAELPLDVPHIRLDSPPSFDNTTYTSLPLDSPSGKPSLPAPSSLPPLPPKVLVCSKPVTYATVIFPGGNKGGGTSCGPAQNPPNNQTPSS

B1: mAb0051 (antibody, V domains shown)
VH: QVQLEQSGAELVRPGVSVKISCKGSGYTFTDYSMHWVKQSHAKSLEWIGVISTYYGDVRYNQKFKGKATMTVDKSSSTAYMALARLTSEDSAIYYCARAPMITTGAWFAYWGQGTLVTVSA
VL: SIVMTQTPKFLLVSAGDRVTITCKASQSVSNDVAWYQQKPGQSPKLLINYASSRYTGIPDRFTGSGYGTDFTFTISTVQAEDLAVYFCQQDYSSPYTFGGGTKLEIER
notes: Mouse VH/VL, human IgG4 / kappa; The entries seem to include signal peptides; also called antiTLT-1 0051mab
Kd (hTLT-1 ECD-His): 19.3 nM
koff (hTLT-1 ECD-His): 0.00472 s⁻¹
kon (hTLT-1 ECD-His): 245000 M⁻¹ s⁻¹
binding relative to wt hTLT-1 ECD-HPC4 (hTLT-1 ECD-HPC4 F54A): < 0.4 fraction of wt
binding relative to wt hTLT-1 ECD-HPC4 (hTLT-1 ECD-HPC4 R117A): < 0.2 fraction of wt
binding relative to wt hTLT-1 ECD-HPC4 (hTLT-1 ECD-HPC4 S119A): < 0.6 fraction of wt
binding relative to wt hTLT-1 ECD-HPC4 (hTLT-1 ECD-HPC4 M91A): < 0.2 fraction of wt

B2: FVIIa-Fab1001 (other)
heavy: EVKLLESGGGLVQPGGSLKLSCAASGFDFSRYWMTWVRQAPGKGLEWIGEINPDSSTINYNPSLKDKFIISRDNAKNTLYLQMSEVRSEDTALYYCASGVFTSWGQGTLVTVSAASTKGPSVFPLAPCSRSTSESTAALGCLVKDYFPEPVTVSWNSGALTSGVHTFPAVLQSSGLYSLSSVVTVPSSSLGTKTYTCNVDHKPSNTKVDKRVESKYGPPC
light: DVVMTQTPLSLPVSLGDQASISCRSSQSLVHRNGNTYFHWALQKPGQSPKLLIYKVSNRFSGVPDRFSGSGSGTDFTLKISRVEAEDLGVYFCSQSTHVPYTFGGGTKLEIKRTVAAPSVFIFPPSDEQLKSGTASVVCLLNNFYPREAKVQWKVDNALQSGNSQESVTEQDSKDSTYSLSSTLTLSKADYEKHKVYACEVTHQGLSSPVTKSFNRGECEDQVDPRLIDGK
chain: ANAFLEELRPGSLERECKEEQCSFEEAREIFKDAERTKLFWISYSDGDQCASSPCQNGGSCKDQLQSYICFCLPAFEGRNCETHKDDQLICVNENGGCEQYCSDHTGTKRSCRCHEGYSLLADGVSCTPTVEYPCGKIPILEKRNASKPQGRIVGGKVCPKGECPWQVLLLVNGAQLCGGTLINTIWVVSAAHCFDKIKNWRNLIAVLGEHDLSEHDGDEQSRRVAQVIIPSTYVPGTTNHDIALLRLHQPVVLTDHVVPLCLPERTFSERTLAFVRFSLVSGWGQLLDRGATALELMVLNVPRLMTQDCLQQSRKVGDSPNITEYMFCAGYSDGSKDSCKGDSGGPHATHYRGTWYLTGIVSWGQGCATVGHFGVYTRVSQYIEWLQKLMRSEPRPGVLLRAPFP
modifications: linker attached as sialic acid derivative to an N-linked glycan (ST3Gal-III); gamma-carboxylated Glu in the Gla domain; unpaired hinge Cys (YGPPC) coupled by maleimide to the 3 kDa PEG linker
peak thrombin generation at 25 nM, haemophilia A like platelet rich plasma [1]: ~4 fold compared to rFVIIa (25 nM)

B3: FVIIa-Fab1029 (other)
heavy: B2 heavy
light: B2 light
chain: B2 chain
modifications: linker attached as sialic acid derivative to an N-linked glycan (ST3Gal-III); gamma-carboxylated Glu in the Gla domain; unpaired hinge Cys (YGPPC) coupled by maleimide to the 10 kDa PEG linker
peak thrombin generation at 25 nM, haemophilia A like platelet rich plasma [1]: ~2 fold compared to rFVIIa (25 nM)
